Values joined by “and” are separate entries in the source; they are usually repeats but may differ in a detail not shown here. Identical values can stand only once.
Columns and labels:
[1] = biological target: rat CaMKIIα holoenzyme (apo, nonphosphorylated) (rat) (UniProt P11275); test: high-speed atomic force microscopy
[2] = biological target: rat CaMKIIα holoenzyme phosphorylated at Thr286 (rat) (UniProt P11275); test: high-speed atomic force microscopy

## rat CaMKIIα holoenzyme (apo, nonphosphorylated) (from UniProt P11275 1-478)
[1]
  stoichiometry N: 12 and 14

## Ca2+/calmodulin (from UniProt P0DP23 1-149) (natural protein)
[2]
  fraction of Ca2+/CaM bound longer than 60 s: 77.3%
[1]
  fraction of Ca2+/CaM bound longer than 60 s: 41.1%
